Experimental data taken from a protein production outcome set (Wang et al. 2014).

Assay: label from the status in PepcDB records

| Sequence | protein production |
| --- | --- |
| MKRDHHQFQGRLSNHGTSSSSSSISKDKMMMVKKEEDGGGNMDDELLAVLGYKVRSSEMAEVALKLEQLETMMSNVQEDGLSHLATDTVHYNPSELYSWLDNMLSELNPPPLPASSNGLDPVLPSPEICGFPASDYDLKVIPGNAIYQFPAIDSSSSSNNQNKRLKSCSSPDSMVTSTSTGTQIGGVIGTTVTTTTTTTTAAGESTRSVILVDSQENGVRLVHALMACAEAIQQNNLTLAEALVKQIGCLAVSQAGAMRKVATYFAEALARRIYRLSPPQNQIDHCLSDTLQMHFYETCPYLKFAHFTANQAILEAFEGKKRVHVIDFSMNQGLQWPALMQALALREGGPPTFRLTGIGPPAPDNSDHLHEVGCKLAQLAEAIHVEFEYRGFVANSLADLDASMLELRPSDTEAVAVNSVFELHKLLGRPGGIEKVLGVVKQIKPVIFTVVEQESNHNGPVFLDRFTESLHYYSTLFDSLEGVPNSQDKVMSEVYLGKQICNLVACEGPDRVERHETLSQWGNRFGSSGLAPAHLGSNAFKQASMLLSVFNSGQGYRVEESNGCLMLGWHTRPLITTSAWKLSTAAY | failed |
| MATAGNPWGWFLGYLILGVAGSLVSGSCSQIINGEDCSPHSQPWQAALVMENELFCSGVLVHPQWVLSAAHCFQNSYTIGLGLHSLEADQEPGSQMVEASLSVRHPEYNRPLLANDLMLIKLDESVSESDTIRSISIASQCPTAGNSCLVSGWGLLANGRMPTVLQCVNVSVVSEEVCSKLYDPLYHPSMFCAGGGQDQKDSCNGDSGGPLICNGYLQGLVSFGKAPCGQVGVPGVYTNLCKFTEWIEKTVQAS | not failed |
| DLSREADQALQEIVRQTQETAQMCLLNGRKYTVALMKEGERHFRISSNIGENAPIPWTASGRLLLGHLSDGQIVDLIDERDFVLPDGERLPLETFLKQIRQATEDGFFSFDSVADTFTHCFAAPVRDEHGVCICTLCIVAPRADAQRNYQQYRRVLIDSANRLARRIN | failed |
| MGYSRSREIRRWEMRKMKAAGLSVEEAYSDEEGGLVPDLVYKESSSEFLGNKVFDPVLRNKIEIEKPGTEISAVAKRGSVFLSVHPRSYVAPSASGEVDREVSQRLPIESFRDDLMEFVGKHRVIVLVGETGSGKSTQVPKYLYQEGYGDKGIIGCTQPRRAAAISLASTLKREMGCAVGYSIRFDSTTTQDTKIRYMTEGILLQELLADKMLRRYSVVILDEAHERTTNLDISMGLLKLALKERDDLRIIIMSATIEAQKLCNYFGCPAFNIEGRSYPVETRYLSVNVDDYVEWTVKKILYIHENCGEGDILVFVTGRDDVEGVVGIVNHCIRNKCFGEGSEGGRGLKVLPFYSQLPEEMQNRVFQAEKDVRKCIVSTNVAETSLTIPNIGYVIDTGLQKISVYSYDTGESLVTVPISRANADQRTGRAGRTRPGVCYRMYTADTYENDMLPSPVPEIQRTNIHNVVLLLLKHGVHDILGFDFVDRPSEELIQGALLGLHRLGAVCSRGLLTKVGKEMSELRLDPPLARMVLGAAGYGAVNEIASIASMLSVHEVFHRDFDKSSPLCHQGCDFLTLLNIFNAFIRQKNRSEWCNKMKVSEHALKRATETKRAVLMSLREMGVPISSTRSLDKIQRCIISSVHYNVARRRGKGYVCLSNFRACMVHPSSVLADSYSQYIIFYKHLSTRAEYMYCCSNISPQVILEEAGCYYRDRNGVFNIQKHPVIEDGLDREHNPFGSACSLTGARMPGKIALDENLYDRFEKWNESEESDEEPPKKIRRTRI | failed |
| LDTIPTTYVDAGSVFGKTGDAEKVLNGGWNYLMETFNSYANPGYGAMLRANDAMGSDVVLNSKYGFRTHNEFSAIYGKGGTNTLSWLLAYRVINDCNGVLDNIDAAEGTQADRNRIKGQALALRGFLYLHLASCYSFAIDKDPDAVCAPIYTQSTDETIAAEGKPASSVSEVYAQSINDLEEALELIPETYVRDAKHKIDNEVVLGILSRACLYARQWEKAKTYSDKLLAKDNYLMTESEYKAGFNSVDNKEWIWGHAQTNDQSNASYQFHYLDTTTKGSYYYSFNVDPYFRDLFEDGDYRKEMLFWATDPGADVESAAYVWMRNSKFRFRDIENQLGDIVLMRVAEIYLINAEAKAHLNDPDAINKLNDLKTARGAKTIHTNLSQQDLLETIWLERRKELWGEGFSLIDIIRNQQTVVRNAYPEGPIDYIYTDENGQTHTLKKKTQGHRFFNFPDKSAFCPNSKYYLYRITDSEELANKNLYKDHPKLSIYTK | not failed |
| AIAREWKSQDAWKQHSLRLCFGVWPGTEFLHRPRAVHRRSGVVCSQMQTEDSHPETPQVPKESLQEEKDSSPATDASFIQSQDGKTVFLDRRTERRIQRGFVLTERGPRSIWKPAGTSSQRNERVPRRAAARGGAGPPDTTPQLATVRVLVLGANHVAQRLAELLSSHSRVCGCYFVSETTDEAAIESMKKYAYALPLRSALNDDEVVRVAEWVLADYVFLVPTGETHDDGVSLKDKERLERTLAQNRVTFMDENLTGLLLENPSLIDALFRARDSLEA | failed |
| MFTTVITPRVSETDGVGHINNTTVPVWFEAGRHEIFKLFTPDLSFKRWRMVIIRMEVDYVNQMYYGQDVTVYTGIERIGNTSLTIYEEIHQNGVVCAKGRSVYVNFNFDTGRPEPIPDDIRVKLREHVWQPGE | not failed |
| MTIRAGSLDRRTLLRGAIATAAMGSFAVACSSPSSEDKESDSGPKGEKSANNPFGAAANSTVEAAIFDGGYGTDYVDYANQVLGSQVKGLKVQVKPVVDIAPQLQPRFVGGNPPDLIDNSGEDQIGFLGILDQLEELDDLFEASTYEGKKIADIVYPGVKDPGTFKDKFVALNYVMTVYGVWYSKTLFEENGWTPPKTWDEALDLGQEAKKKGKYLFVHGKEAATYYRTLLIDSAIKEGGDEVRLALENLEKGCWSHPAVQGVIKVMETMVKQKMFVPGGSGTQFQKAQAIWSNDQKALLYPSGGWIENEMKKATKADFQMTGIPSMTLTDKPALPYEALRAAAGEPFIVPKQGKNPAGGKEVLRAMLSEKAAANFSKTKLAPTIVKGTVPADGYGSTALVSQTKMLEAAGTNIFNYMFVETYGLNTDQLVPWNSFLAGDLDGKGLTSALQKISDKVREDDSVDKVKVS | failed |
| STQVSQATSQPINFQVQKDGSSEKSHMDDYMQHPGKVIKQNNKYYFQTVLNNASFWKEYKFYNANNQELATTVVNDNKKADTRTINVAVEPGYKSLTTKVHIVVPQINYNHRYTTHLEFEKAIPTLADAAK | not failed |
| MQRYDAVISGAGPAGCSAALSLAQKGRRVLLIDKARFPREKICGDGVTAASTELLEEMGVLELLRQRPGSLTEFRGATFVSPGGTVVQGRILRNGHLSGSSYVIPRMVLDDSLVSRVKEHSSITFLDKTTVTGLVMDGDRARGVATSAGEFCGRIIIAADGAYSPIAKQLDLWNRDKRQQGFAMRAWFSGVEGLGDSIELCYDKAMLPGYGWIFPAGEQRANVGVFLLPRFADQRSTKRLFKSFVKENAFAAARLKNAVMEPGSLKSWPLPFGSFAGRRGRGNVLLAGDAGSFIDPLTGEGIYYALKTGRYAAEAVANALERNDESAALTRYEQLWRGEFSGRVYFPGYAFQHFMNNSWFVDTFMRYTAKKQHRADLLADVVAHNRKRRELFKLLNPFYLEHHHHHH | failed |
| MEGMDPLAVLAESRLLPLLTVRGGEDLLGLARVLEEEGVGALEITLRTEKGLEALKALRKSGLLLGAGTVRSPKEAEAALEAGAAFLVSPGLLEEVAALAQARGVPYLPGVLTPTEVERALALGLSALKFFPAEPFQGVRVLRAYAEVFPEVRFLPTGGIKEEHLPHYAALPNLLAVGGSWLLQGNLEAVRAKVRAAKALLSPQAPG | not failed |
| MSDHHHHDHHLGCACCALPLLELLDQPQLSQDEWQRELETLAPELGKRFPRPGQQESAIFHGGSIRPLAAAGPSRVAALGMSGGRIVAMGDLDDVRAAMASHRPFREIDLDGRALLPGLVDPHMHIMPSALFKSWISLSAFGVTRNSQDGEDAQVLNPDYSYQQIKDKLLPAIAQAKQPGAASNWVLGFGVDPSLMREWVDIKASSLDELAPPDDNIAVFLLNASGHIGYANTAAMKEAGLTPEQIKKCEGVLTEANIIQIMGKIPKRILAKDLLRNLLMVLHDAASRGNTMLFDAGLGSSLKEAEVRLLQLIAKLGLSPVRIAGALYSNELTQMRQWMKLYQPDLNSQDDSHFSIKALKLVADGSNQGLTGFQFSPYKNVAQHPVPDVPPIGLFNFKIPDAPSSENENRLPDSLASYLHLALGSGWPVLVHSNGEQAMELVLDSYQEAISATRADARHLRLRVEHASLLTDATLSRMASMGLSPSFLIGHVGYWGYALQNDILGEARTELLDRCKSARDAGIRISLHSDHFVSPLGSLRMAEQAIYRKMEGAPQEEKPVLNKEECLSHEQALAAVTLDAAWQCHMDHLVGSLEPGKLADMVILGQDPLDDGVTDLRHINVHETWRGGARVYANPNTH | failed |
| MPLVKRNIDPRHLCHTALPRGIKNELECVTNISLANIIRQLSSLSKYAEDIFGELFNEAHSFSFRVNSLQERVDRLSVSVTQLDPKEEELSLQDITMRKAFRSSTIQDQQLFDRKTLPIPLQETYDVCEQPPPLNILTPYRDDGKEGLKFYTNPSYFFDLW | failed |
| MKKRILAVAVTSMLLSASVFAQETVVPSRVGDLKFESDFPTQETMKNMLNEMDFQRATQAYLWGIPASSIMEWLNVSRNDFKFEEGQMGFFNTLKQKQGIITANFTTPYVIGTWNLEKTGPLIINLPEAKMAGMMLDVHQRVLSDLSLLGPDKGKGGKYLIVPPGEKYKDLNPKGYYVIRPKTNVVYGGIRILEPDVDRVVKQVVPNITTQPYADGKLGRKIPVAQVPEIDWTHIPKDGLEYWKTIHQIIQENPVEERDRFVMAQLKFLGIEKGKPFNPTEEQKKILLEASKVGRAMAQSNDYTKRFTQPYWKGTNWKDAISVSLDQRSENYDELDERAAWFYEAITVSRGMKSTIPGFGQRYLVTYQDSDGNWLSGEHTYKLHVPANVPASNFWSTTVYDENNRLMIINDAGSPDISSRKNLKVNSDGSIDVYYGPKPVKGYENNWVQTNPGEGWFTYFRFYGPTEKMFDKSWTMGDIELVKLEHHHHHH | not failed |
| MLPPPPSASPAARENTDPGGHRADSGVSYSKIDPVGTFVRLLGLIAPAWQAVLGATLLGSGTIASNIGLMATAAFLIASAALHPPAGKLMLAIVGVRFFGITRAVCRYLERYVNHSITLGILGRLRVAFYRTLEPLIPAGLQGHHSGDLLSRAVADVATLENFYLRVLNPPLVALPVAAGVFLFLAHFGRTLALAWMGAFLAAGVIFPVGVTIVGRGVMRRQGEARAALNTALVDTVQGLADILVFDHGRQQQEYIATLDRQYLHLQGRKAGLNGLANALTSLASNLALWAVLVLAIPLVNRGQIDGVYLAMLALTAAAALEAAKPLPMLFPHLEGSLAAARRIFALSDTRPAGDPAGPVPHPRDFSLRVQGLRFRYGPGEPPALDGIDFDVPSGARIAIVGPSGAGKSTLVNLLLRFWDYEEGAILLGGYDLKAYPPEELQRFIGVVAQPTHLFHATIAENLLLARPDATREEMERAAREARLHEFIQVLPRGYDTLIGEEGFKLSGGQRQRLAIARALLQNAPILILDEATTGLDAVTEREVMDSIRHLMEGRTTLVITHRLVGLEDMDKILVLDRGRLVQQGRHAELLRQEGLYRHLWQLQQEALP | failed |
| MLTLLNLLSAVTLLVWGTHIVRTGILRVFGSNLRRIISQNMDKRPLAFIAGILVTAMVQSSNATAMLVTSFVGQGLMAMTPALAIMLGADVGTALMARVLTFDLSWLSPLLIFLGVIFFLSRKQTRAGQLGRVGIGLGLIILALELIVQAAAPITQAQGVKVLFASLTGDIMLDALVGAMFAMISYSSLAAVLLTATLAGAELISLPVAIGLVVGANIGSGLLAFISTSMQNAAGRRVALGSLLYKLIGLVLIIPVLHPLVAWMDSLSFSPQELVIGFHLLYNTLRCLIMLPTVKPMGRLCNALLPEREIGNGQVRPRHLDASALETPSLALANAARETLRLGDIVDSLLEAMLGALRGTQTALPQQVRALGEDAEALYSAIKLYLAQMSREDLSEQDNRRWAEIIELSINLKLACDLIERMLRKVQQQKTSQRREFSQVGLEELTGLQEQLLANLRLGLSVFLSADPESARLLLREKRRFRAQERRLAHAHVSRLQRKVVQSIETSSLHLELIADMKRLNSLFCSSAYVVLGGSDTGGLMLDSVPDEARLP | failed |
